Measurements from patent US10544159B2, “Artemisinin derivatives, methods for their preparation and their use as antimalarial agents” (priority 2012, dated 2020).
Values joined by “and” are separate entries in the source; they are usually repeats but may differ in a detail not shown here. Equal values may be shown once.

Assays:
[1] = Total turnovers and regio-/stereoselectivity of P450 variants in artemisinin hydroxylation (analytical scale); assay type: biochemical; details: for Product distribution (%) 4: share of 6a-hydroxy-ART (4); for Product distribution (%) 4 / Product distribution (%) 3 / Product distribution (%) 2: 0.5 mM artemisinin, 0.5-1 μM P450, 12 hours; for Product distribution (%) 3: share of 7(R)-hydroxy-ART (3); for Product distribution (%) 2: share of 7(S)-hydroxy-ART (2); for TTN: total turnovers on artemisinin, NADPH cofactor regeneration system, analytical scale
Protocol: Determination of Total Turnovers and Regio- and Stereoselectivity of the P450 Variants.
After 12 hours, 9-fluorenone was added to the mixtures as internal standard. The hydroxylation products were functionalized with benzoyl chloride followed by HPLC analysis. TTN values were calculated based on the total amount of hydroxylated products in the reactions as quantified based on the calibration curves generated using purified 2-4. The enzyme regio- and stereoselectivity was determined based on the area under the curve of the chromatographic peaks corresponding to the hydroxylation products 2, 3, and 4. Mean and standard deviation values reported for P450 variants in Table 1 were calculated from experiments performed at least in triplicate.

[2] = KD for artemisinin binding to P450 variants (heme spin-shift titration); details: binding of artemisinin to 3 μM purified P450, pH 8.0
Protocol: Determination of KD Values for Artemisinin Binding.
Binding experiments were performed using 3 μM purified P450 in potassium phosphate buffer (50 mM, pH 8.0) by titrating increasing amounts of artemisinin (5 μM to 1 mM) from an ethanol stock solution (50 mM). At each concentration, a difference spectrum from 350 to 500 nm was recorded and binding curves were generated by plotting the change in absorbance at 390 nm and 420 nm corresponding to the high-spin and low-spin state of the enzyme, respectively, against the artemisinin concentration. KD values were calculated using Sigma Plot via non-linear fitting of the experimental binding curves to an equation describing a standard 1:1 binding interaction. Reported mean and standard deviation values were calculated from experiments performed at least in triplicate.

[3] = assay type: biochemical; details: 250 μM artemisinin, rates measured over initial 30 seconds
Protocol: Measurement of Product Formation Rates and Coupling Efficiency.
Initial product formation rates were measured from 1 mL-scale reactions containing 250 μM artemisinin, 0.1-0.5 μM purified P450, and 200 μM NADPH in potassium phosphate buffer (50 mM, pH 8.0) at room temperature. After 30 seconds, the samples were extracted with dichloromethane and subjected to benzoyl chloride derivatization followed by HPLC analysis as described above. Cofactor oxidation rate in the presence of artemisinin was measured by monitoring NADPH depletion at 340 nm (ε=6.22 mM^−1 cm^−1) using 0.1 μM purified P450, 250 μM artemisinin, and 200 μM NADPH. Coupling efficiency was calculated from the ratio between the initial product formation rate and the initial NADPH oxidation rate. Reported mean and standard deviation values were calculated from experiments performed at least in triplicate.

Molecule	(S)-stereoselectivity for C7 hydroxylation ([1]; artemisinin as substrate)	regioselectivity for C7 hydroxylation ([1]; artemisinin as substrate)	Product distribution (%) 4 [1]	Product distribution (%) 3 [1]	Product distribution (%) 2 [1]	TTN [1]	Kd [2]	Product formation rate [3]	regioselectivity toward 6a-hydroxylation ([1]; artemisinin as substrate)
IV-H4: FL#62-derived P450 variant (SEQ ID NO. 9), 7(S)-hydroxylating (protein) MTIKEMPQPKTFGELKNLPLLNTDKPVQALMKIADELGEIFKFEAPGRVTRYLSSQRLIKEACDESRFDKNLSQALKFSRDVAGDGLATSWTHEKNWKKAHNILLPSFSQQAMKGYHAMMVDIAVQLVQKWERLNADEHIEVSEDMTRLTLDTIGLCGFNYRFNSFYRDQPHPFIISMVRTLDEVMNKLQRANPDDPVYDENKRQCQEDIKVMNDLVDKIIADRKARGEQSDDLLTQMLNGKDPETGEPLDDGNISYQIITFLIAGHETTSGLLSFALYFLVKNPHVLQKVAEEAARVLVDPVPSYKQVKQLKYVGMVLNEALRLWPTAPAFSLYAKEDTVLGGEYPLEKGDEVMVLIPQLHRDKTIWGDDVEEFRPERFENPSAIPQHAFKPFGNGQRACIGQQFALHEATLVLGMMLKHFDFEDHTNYELDIKETLTLKPEGFVVKAKSKKIPLGGIPSPSTEQSAKKVRKKAENAHNTPLLVLYGSNMGTAEGTARDLADIAMSKGFAPQVATLDSHAGNLPREGAVLIVTASYNGHPPDNAKQFVDWLDQASADEVKGVRYSVFGCGDKNWATTYQKVPAFIDETLAAKGAENIADRGEADASDDFEGTYEEWREHMWSDVAAYFNLDIENSEDNKSTLSLQFVDSAADMPLAKMHGAFSTNVVASKELQQPGSARSTRHLEIELPKEASYQEGDHLGVIPRNYEGIVNRVTARFGLDASQQIRLEAEEEKLAHLPLAKTVSVEELLQYVELQDPVTRTQLRAMAAKTVCPPHKVELEALLEKQAYKEQVLAKRLTMLELLEKYPACEMKFSEFIALLPSIRPRYYSISSSPRVDEKQASITVSVVSGEAWSGYGEYKGIASNYLAELQEGDTITCFISTPQSEFTLPKDPETPLIMVGPGTGVAPFRGFVQARKQLKEQGQSLGEAHLYFGCRSPHEDYLYQEELENAQSEGIITLHTAFSRMPNQPKTYVQHVMEQDGKKLIELLDQGAHFYICGDGSQMAPAVEATLMKSYADVHQVSEADARLWLQQLEEKGRYAKDVWAG	> 99.9%	> 99.9%	0%	0%	100%	362 and 362 ± 15	53 ± 11 µM	100 ± 4 Mole product per mole P450 per minute	–
II-E2: FL#62-derived P450 variant (SEQ ID NO. 13) (protein) MTIKEMPQPKTFGELKNLPLLNTDKPVQALMKIADELGEIFKFEAPGRVTRYLSSQRLIKEACDESRFDKNLSQALKFNRDFAGDGLATSWTHEKNWKKAHNILLPSFSQQAMKGYHAMMVDIAVQLVQKWERLNADEHIEVSEDMTRLTLDTIGLCGFNYRFNSFYRDQPHPFIISMVRTLDEVMNKLQRANPDDPVYDENKRQCQEDIKVMNDLVDKIIADRKARGEQSDDLLTQMLNGKDPETGEPLDDGNISYQIITFLIAGHETTSGLLSFALYFLVKNPHVLQKVAEEAARVLVDPVPSYKQVKQLKYVGMVLNEALRLWPTAPAFSLYAKEDTVLGGEYPLEKGDEVMVLIPQLHRDKTIWGDDVEEFRPERFENPSAIPQHAFKPFGNGQRACIGQQFALHEATLVLGMMLKHFDFEDHTNYELDIKETLTLKPEGFVVKAKSKKIPLGGIPSPSTEQSAKKVRKKAENAHNTPLLVLYGSNMGTAEGTARDLADIAMSKGFAPQVATLDSHAGNLPREGAVLIVTASYNGHPPDNAKQFVDWLDQASADEVKGVRYSVFGCGDKNWATTYQKVPAFIDETLAAKGAENIADRGEADASDDFEGTYEEWREHMWSDVAAYFNLDIENSEDNKSTLSLQFVDSAADMPLAKMHGAFSTNVVASKELQQPGSARSTRHLEIELPKEASYQEGDHLGVIPRNYEGIVNRVTARFGLDASQQIRLEAEEEKLAHLPLAKTVSVEELLQYVELQDPVTRTQLRAMAAKTVCPPHKVELEALLEKQAYKEQVLAKRLTMLELLEKYPACEMKFSEFIALLPSIRPRYYSISSSPRVDEKQASITVSVVSGEAWSGYGEYKGIASNYLAELQEGDTITCFISTPQSEFTLPKDPETPLIMVGPGTGVAPFRGFVQARKQLKEQGQSLGEAHLYFGCRSPHEDYLYQEELENAQSEGIITLHTAFSRMPNQPKTYVQHVMEQDGKKLIELLDQGAHFYICGDGSQMAPAVEATLMKSYADVHQVSEADARLWLQQLEEKGRYAKDVWAG	–	–	48%	30%	22%	393 and 393 ± 25	164 ± 18 µM	148 ± 3 Mole product per mole P450 per minute	48%
CYP102A1: naturally occurring wild-type cytochrome P450 CYP102A1 from Bacillus megaterium (SEQ ID NO.: 1) (protein, listed as Bacillus megaterium) MTIKEMPQPKTFGELKNLPLLNTDKPVQALMKIADELGEIFKFEAPGRVTRYLSSQRLIKEACDESRFDKNLSQALKFVRDFAGDGLFTSWTHEKNWKKAHNILLPSFSQQAMKGYHAMMVDIAVQLVQKWERLNADEHIEVPEDMTRLTLDTIGLCGFNYRFNSFYRDQPHPFITSMVRALDEAMNKLQRANPDDPAYDENKRQFQEDIKVMNDLVDKIIADRKASGEQSDDLLTHMLNGKDPETGEPLDDENIRYQIITFLIAGHETTSGLLSFALYFLVKNPHVLQKAAEEAARVLVDPVPSYKQVKQLKYVGMVLNEALRLWPTAPAFSLYAKEDTVLGGEYPLEKGDELMVLIPQLHRDKTIWGDDVEEFRPERFENPSAIPQHAFKPFGNGQRACIGQQFALHEATLVLGMMLKHFDFEDHTNYELDIKETLTLKPEGFVVKAKSKKIPLGGIPSPSTEQSAKKVRKKAENAHNTPLLVLYGSNMGTAEGTARDLADIAMSKGFAPQVATLDSHAGNLPREGAVLIVTASYNGHPPDNAKQFVDWLDQASADEVKGVRYSVFGCGDKNWATTYQKVPAFIDETLAAKGAENIADRGEADASDDFEGTYEEWREHMWSDVAAYFNLDIENSEDNKSTLSLQFVDSAADMPLAKMHGAFSTNVVASKELQQPGSARSTRHLEIELPKEASYQEGDHLGVIPRNYEGIVNRVTARFGLDASQQIRLEAEEEKLAHLPLAKTVSVEELLQYVELQDPVTRTQLRAMAAKTVCPPHKVELEALLEKQAYKEQVLAKRLTMLELLEKYPACEMKFSEFIALLPSIRPRYYSISSSPRVDEKQASITVSVVSGEAWSGYGEYKGIASNYLAELQEGDTITCFISTPQSEFTLPKDPETPLIMVGPGTGVAPFRGFVQARKQLKEQGQSLGEAHLYFGCRSPHEDYLYQEELENAQSEGIITLHTAFSRMPNQPKTYVQHVMEQDGKKLIELLDQGAHFYICGDGSQMAPAVEATLMKSYADVHQVSEADARLWLQQLEEKGRYAKDVWAG	–	–	–	–	–	< 1	–	–	–
FL#41: CYP102A1-derived engineered P450 variant (SEQ ID NO. 4) (protein) MTIKEMPQPKTFGELKNLPLLNTDKPVQALMKIADELGEIFKFEAPGRVTRYLSSQRLIKEACDESRFDKNLSQALKFVRDFAGDGLATSWTHEKNWKKAHNILLPSFSQQAMKGYHAMMVDIAVQLVQKWERLNADEHIEVPEDMTRLTLDTIGLCGFNYRFNSFYRDQPHPFITSMVRALDEAMNKLQRANPDDPAYDENKRQFQEDIKVMNDLVDKIIADRKASGEQSDDLLTHMLNGKDPETGEPLDDENIRYQIITFLIAGHETTSGLLSFALYFLVKNPHVLQKAAEEAARVLVDPVPSYKQVKQLKYVGMVLNEALRLWPTAPAFSLYAKEDTVLGGEYPLEKGDELMVLIPQLHRDKTIWGDDVEEFRPERFENPSAIPQHAFKPFGNGQRACIGQQFALHEATLVLGMMLKHFDFEDHTNYELDIKETLTLKPEGFVVKAKSKKIPLGGIPSPSTEQSAKKVRKKAENAHNTPLLVLYGSNMGTAEGTARDLADIAMSKGFAPQVATLDSHAGNLPREGAVLIVTASYNGHPPDNAKQFVDWLDQASADEVKGVRYSVFGCGDKNWATTYQKVPAFIDETLAAKGAENIADRGEADASDDFEGTYEEWREHMWSDVAAYFNLDIENSEDNKSTLSLQFVDSAADMPLAKMHGAFSTNVVASKELQQPGSARSTRHLEIELPKEASYQEGDHLGVIPRNYEGIVNRVTARFGLDASQQIRLEAEEEKLAHLPLAKTVSVEELLQYVELQDPVTRTQLRAMAAKTVCPPHKVELEALLEKQAYKEQVLAKRLTMLELLEKYPACEMKFSEFIALLPSIRPRYYSISSSPRVDEKQASITVSVVSGEAWSGYGEYKGIASNYLAELQEGDTITCFISTPQSEFTLPKDPETPLIMVGPGTGVAPFRGFVQARKQLKEQGQSLGEAHLYFGCRSPHEDYLYQEELENAQSEGIITLHTAFSRMPNQPKTYVQHVMEQDGKKLIELLDQGAHFYICGDGSQMAPAVEATLMKSYADVHQVSEADARLWLQQLEEKGRYAKDVWAG	–	–	–	–	–	about 50	–	–	–
